Article PMC11026464, “Local environment in biomolecular condensates modulates enzymatic activity across length scales” (Nature Communications, 2024)
One block for each molecule: values may come before it.

How the values were obtained:
[1] = biological target: Dbp1-NOX (LCD of Dbp1 from Saccharomyces cerevisiae, residues 1 to 155, fused to the N-terminus of NADH oxidase from Thermus thermophilus) (Saccharomyces cerevisiae | Thermus thermophilus) (UniProt P24784); assay: single-molecule mass photometry; 20 nM protein in low ionic strength buffer (20 mM NaCl), 25 °C, measured over 1 min; Refeyn OneMP
Dbp1-NOX = test system: T1, Dbp1-NOX; assay: NADH absorbance decrease at […] nm, Michaelis-Menten fit; format: biochemical, Thermus thermophilus; conditions: 1 µM enzyme, two-phase micron-sized condensates (apparent, average of dilute and dense phase); 100 µM FAD, O2; 25 mM Tris, 20 mM NaCl, pH 7.5; NADH 50-200 µM
T1 construct: single fusion chain: Dbp1 LCD (1-155) at N-terminus of NOX; E. coli, heat shock and IMAC; dimer 79 kDa; forms condensates/nanoclusters at low salt; with ATP-dependent RNA helicase DBP1 (Saccharomyces cerevisiae)

[2] = biological target: the molecule itself; assay: single-molecule mass photometry; 20 nM protein in low ionic strength buffer (20 mM NaCl), 25 °C, measured over 1 min; Refeyn OneMP
purified protein = substrate: NC(=O)C1=CN([C@@H]2O[C@H](COP(=O)(O)OP(=O)(O)OC[C@H]3O[C@@H](n4cnc5c(N)ncnc54)[C@H](O)[C@@H]3O)[C@@H](O)[C@H]2O)C=CC1; assay: purified protein; format: biochemical, Thermus thermophilus; conditions: 1 µM enzyme, homogeneous, 100 µM FAD, O2, 25 mM Tris, 20 mM NaCl, pH 7.5, NADH 50-200 µM

stoichiometry N [1]: 2
Molecule: Dbp1-NOX (LCD of Dbp1 from Saccharomyces cerevisiae, residues 1 to 155, fused to the N-terminus of NADH oxidase from Thermus thermophilus) (from UniProt P24784 1-155) (enzyme)

Km (Dbp1-NOX): 89 ± 34 µM
Molecule: NC(=O)C1=CN([C@@H]2O[C@H](COP(=O)(O)OP(=O)(O)OC[C@H]3O[C@@H](n4cnc5c(N)ncnc54)[C@H](O)[C@@H]3O)[C@@H](O)[C@H]2O)C=CC1 [NADH]

B1: NADH oxidase from Thermus thermophilus (NOX) (enzyme)
chain: MEATLPVLDAKTAALKRRSIRRYRKDPVPEGLLREILEAALRAPSAWNLQPWRIVVVRDPATKRALREAAFGQAHVEEAPVVLVLYADLEDALAHLDEVIHPGVQGERREAQKQAIQRAFAAMGQEARKAWASGQSYILLGYLLLLLEAYGLGSVPMLGFDPERVRAILGLPSHAAIPALVALGYPAEEGYPSHRLPLERVVLWR
notes: NADH oxidase (NOX) from Thermus thermophilus; codon-optimised gene cloned into pET-15b; Purified by heat shock only, so it is not clear whether a His tag is on this protein; The dimer peak in mass photometry is printed as 45 kDa; also called unconjugated NOX; source: E. coli BL21-GOLD (DE3), purified (heat shock method)
stoichiometry N [2]: 2
Km (purified protein): 81 ± 36 µM
kcat (purified protein): 1.12 ± 0.21 s⁻¹
